From the domain aggregation screens of Martell et al. (2025)

Experiment: soluble fraction after stress (log2 fold change); higher = more stays soluble; pooled small domains, quantitative proteomics
Conditions: stress: pH 4
Outline: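 Following acid stress at pH 4, the amount of each small protein domain still soluble was measured in pooled custom libraries by high-throughput quantitative proteomics. Its fold change, on a log2 scale, is higher when more of the domain stayed soluble. This fold change is taken as a measure of aggregation propensity.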

| Sequence | soluble fraction (log2) |
| --- | --- |
| HMESAEQTGEELAARVNVLQTVSQALARELGREAAVEELADKMKMTVDEVKDIMKMAMDAMSM | -1.59 |
| HMADYSMDDNAWNAKKADIDEWFEANPDFSANKAITDGLFSIGDSQVEMRKRYWASIAGVFAGLPNSPIG | -1.78 |
| HMKLVAAGYHQNRLLVLLGIQAEELQAKRLLASFDRFRGREATPKPPIHDSARRWLRDTYHHVMNQVPVEL | -0.432 |
| HMRSFADEGTVEEWIKQAIRENEAAVADYRKGKETAVKFLMGQVMRLSKGEANPADLEDKIKAKLD | 0.025 |
| HMGLVDSLEPLLRRVYEALPQRRSMTTERLAVAAGLDEESVKVALARLQLSAFVGVDERGWHRSL | -0.0455 |
| HMGVYDLIYLGYGINVEKEELVDQNISIIRRYANIFDPNGDIKGSTNPTYASNTAVLFNEAKFIIDGYD | -1.79 |
| HMTAGTGIAYSEFRSKVQEGQVKDVAIAPDRITGTLSSGQKFSTVPVNDPGLPKMLDDFNVKYSGQA | 0.22 |
| HMRLNIRTKNNYSYYTIIKDYTNLNGKRTTTIFEKLGNQQQVEERFGKVNTIENIKKYIEELNNE | 0.22 |
| HMVPPVVRTIYGAGGKMTATFLFPGGYEVDAASGAELPGKYRVESISLDQVVLTDKDGNRVPVGFSSVAPT | -0.161 |
| HMARRLELEDIPVDEVLFTASRNLVDAIEVMDPSRQAPMIQPWLKQALEWAVGALGFSKEDAVATLTSD | -0.264 |
| HMKSIFIRADELAAELDVSKALAYKMINQWNEELKAKGYTTVGGRVSRQYYYEKIYGAENVFDF | -1.78 |
| HMKKLTGVQKAAILMIALGPDISSSIIKRLPENMVERITYEIANMTKITAQQRNDILKEFMDMTVAQ | -0.479 |
| HMQGEVVTNRSVIDMSRAGLSADIIRAKILRSDTNFDVTAKALIELKESGVPDDIIALMLERADS | -0.218 |
| HMEILNYVVSDGQSGIRIDRYLSDSNEDLSRSYIQKLLKEQKVTVQGTFVKANYKVQAGDVITVEVPDMA | 0.238 |
| HMVSEASELTDTINKIGSLAQALVGANKLSKTDLVGIIKKYHTSANYNSITDIGVAKNILAELEAKN | -0.264 |
| HMENEIFVPKVFMDWYNKVDKSIKVFKAFNLIEKETDPRLKEWVEDNQDEFAKIWLGQLLPVV | -0.35 |
| HMQLKKDTILSYIEEKLIDSYNSNKGFTTQEISVALNMQRTNVSAILNNLVKENKLVKTKGKPVRYFLSG | -1.02 |
| HMTYTPRAGSLASQVIGFFRHNPDEELLLDDITDKFDATRGNIHTLLAEAVRFKLLARYRNDDGDYVYKPG | -1.6 |
| HMGGGRELGLDPETGKKISVRLGKFGPFVQLGESGEEDKPVFANLGKNQSIATLSLEEAIALLARPK | 0.189 |
| HMAEAPGSVELLAERLRPWWEIHGGEWGSKTKALRFLFGDQAPVAGSYWRALEAAIAQIESTT | -0.108 |
| HMKSAYADVAIAKVQDYVNVRAENNEDSEVLGKLYNNSAATVLETTDDGWYKISSGSVTGYVKSEYVVVG | -1.04 |
| HMKIELTDQQKSLVVDEWNKGEANPPSLLQLIRLAYPDQPHLDGRSKEGKAVKAFLATRDINPLA | -0.0382 |
| HMIMISKSFEINEDNINKRLDIFLTENLDGLSRGIVQKYISLEQITVNKESSHKDYRLKLDDFIEVKIQAH | -1.06 |
| HMTKIDYSINQIYSLRNIENITIVLKDKRSFTGKILKIYWQNGSKIILFTTETRNYKFKEYEISEIYKS | -0.706 |
| HMDTIRINSGSTVKEVAEYLGIPVPEVIKKLMSMGELATLTKTLSDDHIEVLAEEFEKKIKIVHVGEEAD | -0.61 |
| HMDSTSEILKVIQNIVKKEDPYHPLSDDKISNLLNDLDYQISRRTVAKYRDILTIPSSSKRRKL | -0.0776 |
| HMASSRPLAEGDFVRLRAGGATGRIESIKGQKATVQMGGLKVHAPLRDLLPVAEPIKQVSTASNT | 0.203 |
| HMRPQIAIDAIQALSLIMRTENKEDPTYLESRRVVSDAVAKRLSLNPTDLNRAWSRAPRDHQIAVLSALTQ | -0.184 |

| Sequence | soluble fraction (log2) |
| --- | --- |
| HMLSDADLAAFREVFDLVDKDKSGAIEMEEVEELTKLLGLDLTRDEVELLVREIDKDGNGEVDFEEFLLVM | -0.115 |
| HMIDEKVQAADKSIEIGNLSPLKGLVTDDEMHELEKLFEKVMALKDFEVNDVGAGRKYIEAYVSFFKFAEG | -0.847 |
| HMTVVIKVQASQLESWKSSAGTEIKAKLIAVEDEKTYLFVTETGKTIRATAAQLDESSVSRARKLAGL | -0.514 |
| HMGAVDIATARQLISEIGLPIMLKAEGGGGGRGIFAIHNEAELEDAFFKASTMAQASFGNPRLFVEKF | -0.985 |
| HMDSNPLSEREQEVLQLVAKGASNQTIAEQLFLSNGTIRNYMTAIFNKLNANNRTDAVRIARENGW | -0.24 |
| HMGMSMNEFLNNRLEQLAVEAVDKSSLGEEIFFYAEPATINLFKDAVDEDEYKVVFPVLKSIIEVEQKLSR | -1.69 |
| HMVSIGSQVAKRRRELRLTQQNLAEKMGVSFQAISSWEREEFLPDINKLQKLAAILNTKISYLLEE | -0.538 |
| HMQDVVFTVDKDQTGAEIGDMLYEKGIISSPTTFRLALRLTGSMDKLQQGYYQIPQNASLRQVIALLQKG | -0.522 |
| HMELLPAERRQQLVDWFKSNQAGTSQDLARMFGISVSTIRRDLDLLASEGLVKRTHGGAVSIR | 0.2 |
| HMDPFAYEVKVTDLAAGSSEIRTVYTEQGSFNIPSGMSGNLKIQVRSASMYDEVEPSDWYTIGEEDIN | -0.461 |
| HMLSTGQLIRYYRKRAGMTQAELAEEVEMSEPGIRNYELGNRTPSKAQLSAIARGLGIEPEALI | -0.0764 |
| HMANLAQITKTNAVALALKDVGAYNSEDLMKFIDLDKVVLGEDGKPQLEDTINSLKESSPYLFQ | -0.843 |
| HMNVVDTGTDANYRVKISAVNLNMRLGPSTSYKSKGYITPGNYTIIKTSGDWGKVKETGYWVALKYTSKIN | 0.175 |
| HMKSFDERQAALNELAKVIEGTGRKAEQDAEFRREQNQLMIDKIDEQLKGDLTDSQREELKKERAALARK | 0.0649 |
| HMFEDYNELDEYLETRFIPTYVLLKQRKNANGEIDHFPSIRLQHIMALKLSEAELEHVMNYLKEKNIRVG | -0.182 |
| HMKDITPASEDQLKAITDLMLKVNGEWSDAFFTFISKKFNHQISSPEQLTTFEANTIIDMLRKKAEG | 0.22 |
| HMAGTDLSERESEIAMLLLKGYPYKLIASRLYISESTVKSHVQNIYGKLGIHSRTELIEQFSAS | -0.966 |
| HMTESIHVGSKVTINNNAKRWATGQNIYSGVKGKTYTVIQMNGSRLLLDKVISWINKGDVHLPGS | 0.0896 |
| HMLTTIRKATVNDKTRIMEIYAYARQFMAEHGNPNQWKNNNPSEETIDNDIAKQEMYVIETDGEVHAVFY | -1.42 |
| HMQRNLILKLDTDQPEIYKKLESIFVEINGLLVPFFIEKIIWSKQDSLNILFKNSSEALVEQLIGKNVFLP | 0.0162 |
| HMYFGNSLFQARKRSGLSQEGVAEKLGVSRQTVSKWETGETVPDIYQSKKMARLYGVSLDEL | 0.217 |
| HMESIEAGTFELDNKTSIDISEDEANLLNKMFEELTETNSKDMYGVMVADEAGFNEILEFAKENL | -0.551 |
| HMITNSTEIEAMIDSLIKENPEQAEQYRNGNTKVVGWFVGQMMKASKGKANPQVVGDLLAQKLVG | -0.821 |
| HMESFGVAIKRLREAQGWTRADFLRQLGKTGYYMHATTLKRIEEGEQIAKVHEAVIISRLFGVTVEEMG | -1.3 |
| HMIKLTVRQQEILDLIARSIDQTGFPPTRAEIAAELGFKSVNAAEEHLQALARKGVIEMVPGISRGIRLVQ | -0.306 |
| HMKMLPAEVLTHPAVVALIERGAPTGSITPEEVRQASEDAAVEPRHLKALLAHLSALGISVQIP | -0.266 |
| HMDADGEPIKLDQIGISHLSFTVADVKSLGEELVAKGVKLAAPMEAFTSPEGRISSIFVYDPDGILLQFDD | -0.123 |
